Assay results reported in paper doi:10.1101/2024.02.14.580290 (bioRxiv, 2024).

Biological target: rat Gβ1 with Hexa-His-tag (in purified Gαsβ1γ2) (rat, UniProt P54311 2-340)
Assay: cross-linking

binding result: binds
B1: bovine Gαs short subunit (in purified Gαsβ1γ2) (natural protein)
chain: MGCLGNSKTEDQRNEEKAQREANKKIEKQLQKDKQVYRATHRLLLLGAGESGKSTIVKQMRILHVNGFNGDGEKATKVQDIKNNLKEAIETIVAAMSNLVPPVELANPENQFRVDYILSVMNVPDFDFPPEFYEHAKALWEDEGVRACYERSNEYQLIDCAQYFLDKIDVIKQDDYVPSDQDLLRCRVLTSGIFETKFQVDKVNFHMFDVGGQRDERRKWIQCFNDVTAIIFVVASSSYNMVIREDNQTNRLQEALNLFKSIWNNRWLRTISVILFLNKQDLLAEKVLAGKSKIEDYFPEFARYTTPEDATPEPGEDPRVTRAKYFIRDEFLRISTASGDGRHYCYPHFTCAVDTENIRRVFNDCRDIIQRMHLRQYELL
